From paper doi:10.1101/2025.08.29.673013

Legend:
[1] = biological target: Full-length human PARP2 isoform 2 (amino acids 1–570) (human) (UniProt Q9UGN5); test: ITC
[2] = biological target: N-terminal region of PARP2 (NTR; aa 1–80) (human) (UniProt Q9UGN5); test: ITC
[3] = biological target: WGR-CAT construct of PARP2 (aa 81–570) (human) (UniProt Q9UGN5); test: ITC
[4] = biological target: NTR-WGR construct of PARP2 (aa 1–205) (human) (UniProt Q9UGN5); test: ITC
[5] = biological target: Full-length human PARP2 isoform 2 (amino acids 1–570) (human) (UniProt Q9UGN5); test: BLI
[6] = biological target: Biotinylated SUMO [SUMO: Q12306]; test: BLI

Substance | Kd [1] | Kd [2] | Kd [3] | Kd [4] | IC50 [5] | Kd [6] | koff [6] | kon [6]
Small ubiquitin like modifier (SUMO) (from UniProt Q12306 1-101) (natural protein) | 45.6 µM | 201 µM | 1000 µM | 125 µM | 0.82 µM |  |  | 
Full-length human PARP2 isoform 2 (amino acids 1–570) (from UniProt Q9UGN5-2 1-570) (enzyme) |  |  |  |  |  | 66.8 µM | 0.301 s⁻¹ | 4500 M⁻¹ s⁻¹
